This is an account of results in patent US20110281365A1 (Stanford University, published 2011).

Assay [1] concerns the target T1, human FcεRIα protein (alpha chain of the high affinity IgE receptor) (human, UniProt P12319 26-201).
T1 construct: Purified soluble protein used in solution; The embodiments and claims speak of the extracellular region 1-176
T1 sequence (looked up): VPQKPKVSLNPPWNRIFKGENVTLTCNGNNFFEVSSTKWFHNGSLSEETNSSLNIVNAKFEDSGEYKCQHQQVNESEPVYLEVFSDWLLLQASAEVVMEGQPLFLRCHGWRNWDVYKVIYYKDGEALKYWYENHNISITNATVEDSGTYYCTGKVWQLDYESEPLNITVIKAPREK
Kind of assay: fluorescence quenching receptor binding titration, 96-well plate. How it is done: Binding buffer conditions were optimized to improve reproducibility of the binding assay in a 96-well plate format.
(§1) Fluorescence Measurement. Samples were monitored by fluorescence using a Synergy 4 Fluorometer (BioTek) in black 96-well Costar fluorescence plates (Corning). […] The read-type for typical measurements was Endpoint. All measurements were recorded in duplicate.

Assay [2] deals with T1, human FcεRIα protein (alpha chain of …). Description: fluorescence quenching competition assay; competitor of 488-labeled 367C IgE-Fc for FcεRIα. How it is done:
Initial experiments were conducted with unlabeled IgE-Fc as the competitor.
as §1

By Kd is commonly meant the equilibrium constant for the complex coming apart. As usually defined, the EC50 is the concentration giving half of the maximal effect.

B1: Alexa Fluor 488-labeled 367C IgE-Fc (human IgE-Fc Cε3-Cε4 C328A/K367C double mutant) (other)
chain: ADPAADSNPRGVSAYLSRPSPFDLFIRKSPTITCLVVDLAPSCGTVNLTWSRASGKPVNHSTRKEEKQRNGTLTVTSTLPVGTRDWIEGETYQCRVTHPHLPRALMRSTTKTSGPRAAPEVYAFATPEWPGSRDKRTLACLIQNFMPEDISVQWLHNEVQLPDARHSTTQPRKTKGSGFFVFSRLEVTRAEWEQKDEFICRAVHEAASPSQTVQRAVSVNPGKAADDDDKRYLDPAFLYKVRMNEDLGKPIPNPLLGLDSTRTGHHHHHH
modifications: Alexa Fluor 488 maleimide dye on Cys 367 (Dorrington and Bennich numbering)
notes: Expressed in insect cells; also called labeled IgE-Fc
Regarding B1, in assay [1], the equilibrium dissociation constant (Kd) was about 22 nM.

B2: unlabeled wild type IgE-Fc (human IgE-Fc Cε3-Cε4) (other)
chain: ADPCADSNPRGVSAYLSRPSPFDLFIRKSPTITCLVVDLAPSKGTVNLTWSRASGKPVNHSTRKEEKQRNGTLTVTSTLPVGTRDWIEGETYQCRVTHPHLPRALMRSTTKTSGPRAAPEVYAFATPEWPGSRDKRTLACLIQNFMPEDISVQWLHNEVQLPDARHSTTQPRKTKGSGFFVFSRLEVTRAEWEQKDEFICRAVHEAASPSQTVQRAVSVNPGK
notes: also called unlabeled IgE-Fc; unlabeled IgE
Consider B2, for which the EC50 in assay [2] was about 75 nM.
